B1: HuE71-IgG1 (antibody, V domains shown)
VH: QVQLVQPGDELVKPGASVKLSCKASGYTFTSYWMQWVKQRPGQGLEWIGEINPSNGRTNYNEMFKSKAVLSVDKSVSTAYMQLSSLTAEDTAVYYCALYDGYYAMDYWGQGTLVTVSS
VL: DIVMTQSPSSLAVSVGERVTMSCKSSQSLLYSSNQKNYLAWYQQKPGQSPKLLIYWASTRESGVPDRFSGSGSGTDFTLTISSVKAEDVALYYCQQYHSYPFTFGQGTKLEIK
B2: Desferrioxamine-HuE71-IgG1 (antibody, V domains shown)
VH: QVQLVQPGDELVKPGASVKLSCKASGYTFTSYWMQWVKQRPGQGLEWIGEINPSNGRTNYNEMFKSKAVLSVDKSVSTAYMQLSSLTAEDTAVYYCALYDGYYAMDYWGQGTLVTVSS
VL: DIVMTQSPSSLAVSVGERVTMSCKSSQSLLYSSNQKNYLAWYQQKPGQSPKLLIYWASTRESGVPDRFSGSGSGTDFTLTISSVKAEDVALYYCQQYHSYPFTFGQGTKLEIK
B3: Desferrioxamine-HuE71-IgG1-Afuco (antibody, V domains shown)
VH: QVQLVQPGDELVKPGASVKLSCKASGYTFTSYWMQWVKQRPGQGLEWIGEINPSNGRTNYNEMFKSKAVLSVDKSVSTAYMQLSSLTAEDTAVYYCALYDGYYAMDYWGQGTLVTVSS
VL: DIVMTQSPSSLAVSVGERVTMSCKSSQSLLYSSNQKNYLAWYQQKPGQSPKLLIYWASTRESGVPDRFSGSGSGTDFTLTISSVKAEDVALYYCQQYHSYPFTFGQGTKLEIK
B4: HuE71-IgG1-Afuco (antibody, V domains shown)
VH: QVQLVQPGDELVKPGASVKLSCKASGYTFTSYWMQWVKQRPGQGLEWIGEINPSNGRTNYNEMFKSKAVLSVDKSVSTAYMQLSSLTAEDTAVYYCALYDGYYAMDYWGQGTLVTVSS
VL: DIVMTQSPSSLAVSVGERVTMSCKSSQSLLYSSNQKNYLAWYQQKPGQSPKLLIYWASTRESGVPDRFSGSGSGTDFTLTISSVKAEDVALYYCQQYHSYPFTFGQGTKLEIK

Key:
[1] = molecular target: human FcγRIIIa-158V (human); assay: SPR; Biacore T200; analysis of Fc-Fc receptor binding; who was immobilised and the conditions are not given
murine FcγRIV (mouse) = assay: as above

Binder	Kd [1]	Kd (murine FcγRIV (mouse))
B1	873 nM	724 nM
B2	664 nM	539 nM
B3	294 nM	219 nM
B4	286 nM	227 nM
